The target in data set [1] is LDgp5 (LoopDel);thioredoxin (trx) D5A;E7A;beta-hairpin;loop;replaced;by;SGSG (bacteriophage T7;Escherichia coli?) (UniProt P00581+P0AA25). In words: EMSA. The following applies: 20 mM Hepes pH 7.5, 1 mM EDTA, 100 mM KCl, 0.1 mM bME, 5% glycerol, 0.10 mg/mL BSA, 10 nM DNA, 25 C (30 min; 15 min + 15 min for supershift).
Data set [2] addresses WTgp5-trx complex (T7 gp5 DNA polymerase D5A, E7A with thioredoxin) (bacteriophage T7 | not stated) (UniProt P00581).

As usually defined, the Kd is the free concentration of one partner at which half of the binding sites on the other are occupied at equilibrium, for simple one-to-one binding.

With “GGATTATTTACATTGGCAGATTCACC / TTATTAGTTATGATATTCATGTATAGTTATATGGTGAATCTGCCAATGTAAATAATCC / TATTCATGTATAGTTATGTAGAGACCGAGATCCGCGCTGCCAGTCGGCAGAGCC [Fork template 0gap]”, the Kd in data set [1] worked out at 0.13 µM.
Regarding “GGATTATTTACATTGGCAGATTCACC / TTATTAGTTATGATATTCATGTATAGTTATATGGTGAATCTGCCAATGTAAATAATCC / TATTCATGTATAGTTATGTAGAGTCCGAGATCCGCGCTGCCAGTCGGCAGAGCC [Fork template 1gap]”, in data set [1], the Kd is 0.13 µM.
Turning to “GGATTATTTACATTGGCAGATTCACC / TTATTAGTTATGATATTCATGTATAGTTATATGGTGAATCTGCCAATGTAAATAATCC / TATTCATGTATAGTTATGTAGAGTTCCGAGATCCGCGCTGCCAGTCGGCAGAGCC [Fork template 2gap]”, the Kd in data set [1] was found to be 0.13 µM.
As for “GGATTATTTACATTGGCAGATTCACC / TTATTAGTTATGATATTCATGTATAGTTATATGGTGAATCTGCCAATGTAAATAATCC [Linear template-58nt]”, the binding signal (fold lower affinity than WTgp5) in data set [1] is 2.
In data set [2], “T7 gp4 E343Q with truncated C-terminal tails (from UniProt P03692 1-566) (enzyme)” came in with a fold decrease in 2-aminopurine fluorescence of fork DNA (local base-pair unwinding), 2-AP at N+3, against the EQgp4-WTgp5 complex of 2 fold.

Values taken from publication PMC8835902.
